Here are results for two molecules from patent publication EP4261278A1.

This test addresses NDM-type carbapenemase (New Delhi metallo-β-lactamase), recombinant. The test can be described thus: indirect ELISA, plate coated with 0.2 µg/mL NDM carbapenemase, goat anti-mouse secondary antibody, TMB. As to conditions: scale: reciprocal dilution.

B1: anti-NDM-type carbapenemase mouse mAb 12HE11 (antibody, V domains shown)
VH: VQLHESGPELVKPGASVKLSCTASGYTLSDYHVKWVKQNHGQSLEWIGDIRPQNGDIVYNQKFKDKATLTVDKSSTTAYIRLSSLTSEDSAVYYCAFHYYAYGKWFPYWGQGTLVTVS
VL: DILMTQSPSSLTVTAGEKVTLSCRSSQSLFNSGNQKNYLTWHQQKPGQSPKLLIYWAVTRESGVPDRFTGSGSGTDFTLTISSVQAEDLAIYYCQNDYSYPLTFGAGTKLELK
Take B1: the titer is over 1.28e+06.

B2: anti-NDM-type carbapenemase mouse mAb 1GH10 (antibody, V domains shown)
VH: SRDYGLRVELVRPGTSVKVSCKASGYAFSNYLIEWVKQRPGQGLEWIGVINPGRDDTNYNEKFKGKATLTADKSSSTAYMHLSSLTSDDSAVYFCARFPSILRYDSGSFSYFGLDCWGQGTSVTVSS
VL: DVLMTQTPLSLSVSLGDQASISCRSSQSIVHSDGNTYLDWYLQKPGQSPKLLIYKVSNRFSGVPDRFSGSGSGTDFTLKITRVEAEDLGVYYCFQISRVPFTFGSGTKLEIKR
Regarding B2, the titer was over 1.28e+06.
